Patent US20240270846A1
Values joined by “and” are separate entries in the source; they are usually repeats but may differ in a detail not shown here. Equal entries are not always repeated.

Molecular target: ECM (extracellular matrix)
Assay: ECL assay on ECM (Matrigel)-coated plate, MRA reference of the same plate or date

ECL reaction (MRA): 448 and 564
Substance: MRA (antibody)
